One molecule from PMC8660638 can be followed below.

In this data set the target is RNA polymerase I (13-subunit complex) (Homo sapiens (HEK293T), UniProt O95602;Q9H9Y6;O15160;P0DPB6;Q9P1U0;Q3B726;Q9GZS1;O15446;P19388;P61218;P52434;P53 …). Description: cryo-EM structure; open complex, inactive state, 3.3 A; RRN3 in sample but not bound in this class; downstream duplex traced, bubble not stably bound at active site; EM buffer: 15 mM HEPES pH 7.5, 80 mM (NH4)2SO4, 5 mM MgCl2, 10 mM DTT; scaffold annealed in 20 mM HEPES pH 7.5, 12 mM MgCl2, 100 mM NaCl, 10 mM DTT (1x, from printed 2x); complex incubation temperature not given. Conditions: protein: native; copies: 1;1;1;1;1;1;1;1;1;1;1;1;1; 43-bp duplex with 12-nt mismatch bubble, blunt.

B1: Pol I OC scaffold (template/nontemplate DNA, no RNA) (dsDNA)
DNA 1: GTACTGAATTAGACAATGCTCTGTGGCTCTAGTACCATGAGCG
DNA 2: CGCTCATGGTACTAGGCTTCGGAGAAGTTGTCTAATTCAGTAC
For the molecule B1, the binding result is on record as “binds”.
